In patent EP0647275B2 (Mount Sinai School of Medicine, priority 1992, dated 1994):
pIC50, pKd: −log10 of the molar value. Non-standard residues stand in square brackets, D forms with d. Residues, ends and D or L forms follow the SMILES beside them. d(pGlu) = O=C1CC[C@H](C(=O)O)N1; pGlu = O=C1CC[C@@H](C(=O)O)N1

What was measured:
[1] = target: T1, mouse GnRH-R (Mus musculus, UniProt Q01776); assay: Electrophysiological response of Xenopus oocytes injected with WZ25 RNA transcript (two-electrode voltage clamp); assay type: cell-based; details: for response of RNA-injected oocytes to agonist: buserelin 100 nM
T1 construct: The longest open reading frame encodes a 327 amino acid protein; expressed in transfected cells; host or cells: Xenopus laevis oocytes injected with capped synthetic WZ25 RNA transcript
T1 sequence (Q01776 1-327): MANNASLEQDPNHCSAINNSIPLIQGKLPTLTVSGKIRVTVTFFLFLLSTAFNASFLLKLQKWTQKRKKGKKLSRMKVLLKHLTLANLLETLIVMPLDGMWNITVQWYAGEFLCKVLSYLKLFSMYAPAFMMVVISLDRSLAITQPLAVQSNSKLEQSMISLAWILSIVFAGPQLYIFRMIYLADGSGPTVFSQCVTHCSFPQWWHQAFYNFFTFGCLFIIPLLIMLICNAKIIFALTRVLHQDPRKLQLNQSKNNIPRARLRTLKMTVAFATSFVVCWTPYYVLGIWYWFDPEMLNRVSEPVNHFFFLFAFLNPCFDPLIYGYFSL
Method: Adult female Xenopus laevis (Nasco, Ft. Atkinson, WI) were kept at 18-20°C and a day/night cycle of 15h/9h. […] Peptide ligands were diluted in the perfusion buffer and introduced into the bath. The clamp current was recorded using a chart recorder. Reversal potentials were determined by continuous ramping from -70 to +10 mV over 2 seconds with and without agonist through an IBM PC/AT system using the TL-1 interface and pCLAMP software from Axon Instruments (Burlingame, CA).
WZ25 in pBluescript II SK+ (Stratagene) was linearized and capped RNA transcript synthesized using T3 RNA polymerase (Stratagene).

[2] = target: T2, human GnRHR (Homo sapiens, UniProt P30968); assay: Electrophysiological response of Xenopus oocytes injected with LC27-4 RNA transcript; assay type: cell-based; details: 2 x 10^-7 M agonist; LC27-4 RNA-injected oocytes
T2 construct: The human GnRH-R cDNA was subcloned into an expression vector, pSV2A, containing an SV40 early promoter; expressed in transfected cells; host or cells: COS-1 cells, transient DEAE-dextran transfection with pSV2A-human GnRH-R
T2 sequence (P30968 1-328): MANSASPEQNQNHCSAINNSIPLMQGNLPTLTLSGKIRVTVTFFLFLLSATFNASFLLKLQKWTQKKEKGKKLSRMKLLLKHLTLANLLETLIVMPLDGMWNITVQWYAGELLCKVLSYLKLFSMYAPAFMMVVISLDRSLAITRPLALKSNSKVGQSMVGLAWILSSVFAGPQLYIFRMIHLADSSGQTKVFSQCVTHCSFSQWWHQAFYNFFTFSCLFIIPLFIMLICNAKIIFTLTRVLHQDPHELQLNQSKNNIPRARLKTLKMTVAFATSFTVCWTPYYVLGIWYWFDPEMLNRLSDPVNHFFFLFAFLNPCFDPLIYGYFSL
Method: Construct LC27-4 was linearized and capped RNA transcript synthesized using T3 RNA polymerase. Oocyte preparation and electrophysiology were performed as previously described (Sealfon et al., 1990, Mol. Endocrinol. 4:119-124). Cells were injected with 1-10 ng of synthetic transcript and electrophysiology recorded via two-electrode voltage clamp 48 hours later. All agonists and antagonists were applied at a concentration of 0.2 µM.

[3] = target: T1, mouse GnRH-R; assay: 125I-GnRH-A radioligand binding assay, membranes of WZ25 RNA-injected oocytes; details: WZ25 RNA-injected oocyte membranes; read-out: Kd, displacement of 125I-GnRH-A
Method: For membrane preparation, 500 oocytes were each injected with 2.5 ng synthetic WZ25 RNA.

[4] = target: T3, GnRH-R (Mus musculus, UniProt Q01776); assay: 125I-GnRH-A radioligand binding assay, αT3-1 cell membranes; details: read-out: Kd, displacement of 125I-GnRH-A
T3 construct: similar Kds of 4.5 and 2.9 nM in WZ25 RNA-injected oocyte membranes and αT3-1 cell membranes respectively; endogenous in cells; host or cells: αT3-1 mouse gonadotrope cell membranes, combined with membranes from uninjected oocytes
T3 sequence (Q01776 1-327): T1 sequence (Q01776 1-327)

[5] = target: T2, human GnRHR; assay: 125I-GnRH-A receptor binding, membranes of COS-1 cells transfected with pSV2A-human GnRH-R; details: membranes from transfected COS-1 cells; read-out: dissociation constant, displacement of GnRH-A
[6] = target: T2, human GnRHR; assay: Inositol phosphate production in COS-1 cells transfected with pSV2A-human GnRH-R; assay type: cell-based; details: GnRH 10^-8 M; read-out: IC50, inhibition of GnRH-stimulated inositol phosphate production
Method: For studies on inositol phosphate production, 1.8 x 10^5 cells/well (12-well plates) were transfected with 1.5 µg DNA. Cells were assayed 48 hours after transfection.
Accumulation of [^3H]IP in the presence of LiCl was used as an index of inositol phosphate turnover. […] The reaction was terminated by the addition of a perchloric acid solution and phytic acid. After neutralizing with KOH, the inositol phosphates were separated on a Dowex ion exchange column and counted.

[7] = target: mouse gonadotropin-releasing hormone receptor (GnRH-R), clone WZ25 (mouse); assay: cell-based or functional assay
[8] = target: mouse gonadotropin-releasing hormone receptor (GnRH-R), clone WZ25 (mouse); assay: displacement of 125I-GnRH-A by GnRH-A, membranes of WZ25 RNA-injected oocytes
[9] = target: human gonadotropin-releasing hormone receptor (GnRH-R), clone LC27-4 (human); assay: displacement of 125I-GnRH-A, membranes of COS-1 cells transfected with human GnRH-R
[10] = target: mouse gonadotropin-releasing hormone receptor (GnRH-R), clone WZ25 (mouse); assay: displacement of 125I-GnRH-A by GnRH-A, alphaT3-1 cell membranes (endogenous mouse receptor)
[11] = target: mouse gonadotropin-releasing hormone receptor (GnRH-R), clone WZ25 (mouse); assay: radioligand binding of 125I-GnRH-A to membranes of WZ25 RNA-injected oocytes; non-specific binding with 10^-6 M GnRH analogue was 662 cpm
[12] = target: human gonadotropin-releasing hormone receptor (GnRH-R), clone LC27-4 (human); assay: cell-based or functional assay
[13] = target: human gonadotropin-releasing hormone receptor (GnRH-R), clone LC27-4 (human); assay: calculated from the IC50 of inhibition of GnRH-stimulated inositol phosphate production in COS-1 cells transfected with human GnRH-R

Which “response of RNA-injected oocytes to agonist” value ([1]; WZ25 RNA-injected oocytes) does the source give for `CC(C)C[C@H](NC(=O)CNC(=O)[C@H](Cc1ccc(O)cc1)NC(=O)[C@H](CO)NC(=O)[C@H](Cc1c[nH]c2ccccc12)NC(=O)[C@H](Cc1cnc[nH]1)NC(=O)[C@@H]1CCC(=O)N1)C(=O)N[C@@H](CCCNC(=N)N)C(=O)N1CCC[C@H]1C(=O)NCC(N)=O` [GnRH, gonadotropin-releasing hormone] here?
The value was “large depolarizing response”.

And the “response to GnRH alone” value ([1]; WZ25 RNA-injected oocytes, n=4)?
Its value is 4756±1082 nA.

And the “Vr of the current elicited by GnRH” value ([1]; oocytes injected with WZ25 RNA transcript, n=7)?
The value was -27±0.79 mV.

And the “response of RNA-injected oocytes to agonist” value [2]?
Its value is “large depolarizing currents”.

Which results are given for `CCNC(=O)[C@@H]1CCCN1C(=O)[C@H](CCCNC(=N)N)NC(=O)[C@H](CC(C)C)N(C)C(=O)[C@@H](C)NC(=O)[C@H](Cc1ccc(O)cc1)NC(=O)[C@H](CO)NC(=O)[C@H](Cc1c[nH]c2ccccc12)NC(=O)[C@H](Cc1cnc[nH]1)NC(=O)[C@@H]1CCC(=O)N1` [GnRH-A, [D-Ala^6, NaMe-Leu^7, Pro^9-NHEt]GnRH]?
pKd [3]: 8.35; pKd [4]: 8.54; pKd [5]: 9.01

What does the source list for `CC(C)C[C@H](NC(=O)[C@@H](Cc1ccccc1)NC(=O)[C@H](Cc1ccc(O)cc1)NC(=O)[C@H](CO)NC(=O)[C@@H]1CCCN1C(=O)[C@@H](Cc1ccccc1)NC(=O)[C@@H]1CCC(=O)N1)C(=O)N[C@@H](CCCNC(=N)N)C(=O)N1CCC[C@H]1C(=O)NCC(N)=O` [[D-Phe^2.6, Pro^3]GnRH, [D-Phe^2.6,Pro^3]-GnRH] ([pGlu][dF]PSY[dF]LRPG-NH2)?
response to GnRH in the presence of equimolar antagonist ([1]; WZ25 RNA-injected oocytes, n=5): 1880±551 nA; reduction in the response to GnRH ([1]; equimolar antagonist, in comparison with the response to GnRH alone): 60%

`CC(C)C[C@H](NC(=O)[C@@H](Cc1c[nH]c2ccccc12)NC(=O)[C@H](Cc1ccc(O)cc1)NC(=O)[C@H](CO)NC(=O)[C@@H](Cc1c[nH]c2ccccc12)NC(=O)[C@@H](Cc1ccccc1)NC(=O)[C@H]1CCC(=O)N1)C(=O)N[C@@H](CCCNC(=N)N)C(=O)N1CCC[C@H]1C(=O)NCC(N)=O` [antagonist 5, [D-pGlu^1,D-Phe^2,D-Trp^3,6]GnRH] ([d(pGlu)][dF][dW]SY[dW]LRPG-NH2) was tested. Which pKd [5] did it give?
Its pKd is 8.08.

And the pIC50 [6]?
Its pIC50 is 6.98.

Which results are given for “D-Ser(But)^6,Pro^9-N-ethylamide GnRH [buserelin]”?
response of RNA-injected oocytes to agonist ([1]; WZ25 RNA-injected oocytes): elicited a depolarizing current; response of RNA-injected oocytes to agonist [2]: large depolarizing currents

What does the source list for “GnRH antagonist [D-Phe^2.6,Pro^3]-GnRH (from UniProt P01148 24-92) (peptide)”?
reduction in the response to GnRH in the presence of equimolar antagonist, WZ25 RNA-injected oocytes [7]: 60%; response to GnRH (clamp current) in the presence of equimolar antagonist, WZ25 RNA-injected oocytes [7]: 1880 nA

How did the pIC50 [6] turn out when “[Ac-D-NaI^1,D-α-4-ClPhe^2,D-Pal^3,D-Arg^6, D-Ala^10]GnRH [antagonist 13]” was run?
The pIC50 was 8.17.

With “[D-Ala^6, NaMe-Leu^7, Pro^9-NHEt]GnRH (GnRH-A) (from UniProt P01148 24-92) (peptide)” as the compound, how does the pKd [8] read?
Its pKd is 8.35.

And the pKd [9]?
Its pKd is 9.01.

What about the pKd [10] of the same compound?
Its pKd is 8.54.

And the Bo (maximal binding) [11]?
The Bo (maximal binding) was 1430 cpm.

What does the source list for “antagonist 5: [D-pGlu^1,D-Phe^2,D-Trp^3,6]GnRH (from UniProt P01148 24-92) (peptide)”?
IC50 of inhibition of GnRH-stimulated (10^-8 M) inositol phosphate production, transfected COS-1 cells [12]: 105 nM; pKd [9]: 8.08; pKd [13]: 8.44

Which IC50 of inhibition of GnRH-stimulated (10^-8 M) inositol phosphate production, transfected COS-1 cells [12] does the source give for “antagonist 13: [Ac-D-NaI^1,D-α-4-ClPhe^2,D-Pal^3,D-Arg^6, D-Ala^10]GnRH (from UniProt P01148 24-92) (peptide)” here?
The IC50 of inhibition of GnRH-stimulated (10^-8 M) inositol phosphate production, transfected COS-1 cells was 6.7 nM.

What about the pKd [13] of the same compound?
The pKd was 9.68.

“gonadotropin-releasing hormone (GnRH) (from UniProt P01148 24-92) (peptide)” was tested. Which EC50 of inositol phosphate production, COS-1 cells transfected with human GnRH-R [12] did it give?
The EC50 of inositol phosphate production, COS-1 cells transfected with human GnRH-R was 3 nM.

What about the increase in phosphoinositol metabolism at maximal receptor stimulation, COS-1 cells transfected with human GnRH-R [12] of the same compound?
The increase in phosphoinositol metabolism at maximal receptor stimulation, COS-1 cells transfected with human GnRH-R was 8 fold.

And the response to GnRH alone (clamp current) in WZ25 RNA-injected oocytes [7]?
Its response to GnRH alone (clamp current) in WZ25 RNA-injected oocytes is 4760 nA.
